# Measured values as given in article PMC11575137 (BMC Biology, 2024).
# Biological target: biotinylated GTP-loaded KRAS (recombinant human KRAS loaded with GppCp) (human, UniProt P01116 1-189)
# Assay: BLI
# Sequence of biotinylated GTP-loaded KRAS (recombinant human KRAS loaded with GppCp) (P01116 whole entry): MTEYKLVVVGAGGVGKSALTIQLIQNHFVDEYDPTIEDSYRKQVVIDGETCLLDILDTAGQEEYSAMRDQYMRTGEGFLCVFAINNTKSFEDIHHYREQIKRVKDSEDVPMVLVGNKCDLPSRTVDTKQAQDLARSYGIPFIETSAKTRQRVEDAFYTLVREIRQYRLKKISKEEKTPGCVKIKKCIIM
row,Binder,Kd
1,IVRVFLPNKQRTVVP [peptide_(BRAF)],150 µM
2,DVKVFSEDGTSKVVE [peptide_(GRB10)],78 µM
3,VIKVYSEDETSRALD [peptide_(GRB14)],87 µM
4,VVNVGGKTVK [peptide_(RAB4B)],84 µM
